Laboratory results as given in PMC9299759, “FBXW24 controls female meiotic prophase progression by regulating SYCP3 ubiquitination” (Clinical and Translational Medicine, 2022).

Biological target: T1, FBXW24‐EGFP‐Strep II protein, purified from Sf9 (mouse, UniProt E9PXM9 1-466)
T1 construct: FBXW24 (F-box and WD-40 domain protein 24), mouse, gene ID 382106; also called FBXW24‐StrepII; in vitro purified FBXW24; source: Sf9 (Bac-to-bac baculovirus), purified (Ni-NTA); not shown: EGFP, C-terminal, kept; Strep II, C-terminal, kept
T1 sequence (looked up): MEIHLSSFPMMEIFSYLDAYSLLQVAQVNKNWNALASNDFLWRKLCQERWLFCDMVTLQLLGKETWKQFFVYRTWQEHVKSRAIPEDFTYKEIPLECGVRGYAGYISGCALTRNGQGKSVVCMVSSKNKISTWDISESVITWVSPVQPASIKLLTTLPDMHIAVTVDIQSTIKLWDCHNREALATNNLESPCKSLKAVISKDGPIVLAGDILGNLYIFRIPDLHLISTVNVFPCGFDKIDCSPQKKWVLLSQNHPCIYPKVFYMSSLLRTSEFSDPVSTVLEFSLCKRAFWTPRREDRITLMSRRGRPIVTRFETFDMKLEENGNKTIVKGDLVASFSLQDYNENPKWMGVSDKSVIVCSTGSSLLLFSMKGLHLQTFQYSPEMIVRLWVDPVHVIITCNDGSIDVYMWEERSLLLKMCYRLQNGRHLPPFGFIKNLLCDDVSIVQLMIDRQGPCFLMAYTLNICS
Assay: co-IP; co-IP between in vitro purified proteins; 1 μg SYCP3‐Flag protein and/or FBXW24‐StrepII protein in each reaction
Conditions: both partners purified

B1: SYCP3‐TagRFP‐Flag protein, purified from Sf9 (natural protein, mouse, UniProt P70281 1-254, looked up)
chain: MLRGCGDSDSSPEPLSKHLKMVPGGRKHSGKSGKPPLVDQPKKAFDFEKDDKDLSGSEEDVADEKAPVIDKHGKKRSAGIIEDVGGEVQNMLEKFGADINKALLAKRKRIEMYTKASFKASNQKIEQIWKTQQEEIQKLNNEYSQQFMNVLQQWELDIQKFEEQGEKLSNLFRQQQKIFQQSRIVQSQRMFAMKQIHEQFIKSLEDVEKNNDNLFTGTQSELKKEMAMLQKKVMMETQQQEMANVRKSLQSMLF
notes: SYCP3, synaptonemal complex lateral element protein; The purified protein ran as several bands, and the upper bands carried ubiquitin; also called SYCP3‐Flag; in vitro purified SYCP3; source: Sf9 (Bac-to-bac baculovirus), purified (Ni-NTA); not shown: TagRFP, C-terminal, kept; Flag, C-terminal, kept
  binding result: binds
